Paper PMC8906540 (RNA, 2022)

Molecular target: the molecule itself
Experiment: SEC

B1: YloC protein of Bacillus subtilis, purified, 8×His-Sumo tag removed (enzyme, UniProt O34441 1-291, looked up)
chain: MIRSMTGFGSASKTQDDLSVSVELKSVNYRFKEVNARLPRPLLYFEDKLKQTILQHIQRGRIELFVSVDSDMLVEKRLEIDWPLLDEFVAAARDMKKRYQLSAEPDVMDFFKLDHVVQVHEEQTQNDKLEALIIDAAEEAVKGLCEMREKEGLLLAKDCLMHIDQLEELVRETELLAADVVSRYRERLYARIKEWTEDVLDESRLVTECAIFADRSDITEEITRLKSHFAQFRDILASGGAVGRKLDFLVQELNREANTIGSKANDHQITKLVVEMKSSIEKIKEQVQNIE
stoichiometry N: ~6
